Measurements: patent US20240294646A1
pKd: −log10 of the molar value.

Experiments:
[1] = biological target: FcγRIIaR soluble extracellular domain with C-terminal 10xHis tag (UniProt P12318); experiment: SPR, OAA captured on HER2, receptor in solution; KD(WT v16463)/KD(variant)
[2] = biological target: FcγRIIb soluble extracellular domain with C-terminal 10xHis tag (UniProt P31994); experiment: as above
[3] = biological target: FcγRIIb soluble extracellular domain with C-terminal 10xHis tag (UniProt P31994); experiment: SPR, OAA captured on HER2, receptor in solution; KD(control v27294)/KD(variant)
[4] = biological target: FcγRIIb soluble extracellular domain with C-terminal 10xHis tag (UniProt P31994); experiment: SPR; IIb-Fold/IIaR-Fold (FcγRIIb against FcγRIIaR)
[5] = biological target: Soluble FcγRIIb extracellular domain with C-terminal 10xHis tag (UniProt P31994); experiment: SPR (Biacore 4000); variant captured on HER2, receptor in solution
[6] = biological target: Soluble FcγRIIaR extracellular domain with C-terminal 10xHis tag (UniProt P12318); experiment: as above
[7] = biological target: FcγRIIb (UniProt P31994); experiment: SPR; ratio of IIb-Fold to IIaR-Fold (FcγRIIb against FcγRIIaR)
Target sequence in this assay (P31994 43-217): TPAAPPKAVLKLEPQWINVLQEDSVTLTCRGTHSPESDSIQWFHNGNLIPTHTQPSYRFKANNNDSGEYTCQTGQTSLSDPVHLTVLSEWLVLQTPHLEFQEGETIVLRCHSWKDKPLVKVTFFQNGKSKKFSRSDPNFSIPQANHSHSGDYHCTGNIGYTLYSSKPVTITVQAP

[8] = biological target: C1q (human) (UniProt P02745); experiment: ELISA; antibody coated on the plate, human C1q added; signal as % of wild-type
[9] = biological target: FcγRIIaR (UniProt P12318); experiment: SPR; antibody captured on immobilised HER2, soluble FcγR as analyte; fold over wild-type
Target sequence in this assay (P12318 34-217): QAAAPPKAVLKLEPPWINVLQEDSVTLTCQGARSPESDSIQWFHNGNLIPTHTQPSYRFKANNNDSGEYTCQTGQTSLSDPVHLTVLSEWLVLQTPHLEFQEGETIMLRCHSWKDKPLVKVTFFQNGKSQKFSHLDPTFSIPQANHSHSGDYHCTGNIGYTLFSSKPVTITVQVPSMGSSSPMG

[10] = biological target: FcγRIIb (UniProt P31994); experiment: as above
Target sequence in this assay (P31994 43-217): as the sequence (P31994 43-217) above

[11] = biological target: FcγRIIaR (UniProt P12318); experiment: SPR (Protocol 1), one-armed antibody captured on HER2, receptor as analyte; ratio to wild-type
Target sequence in this assay (P12318 34-217): as the sequence (P12318 34-217) above

[12] = biological target: FcγRIIb (UniProt P31994); experiment: as above
Target sequence in this assay (P31994 43-217 limits assumed): as the sequence (P31994 43-217) above

[13] = biological target: FcγRIIaR (UniProt P12318); experiment: SPR (Protocol 1), one-armed antibody captured on HER2, receptor as analyte; fold over wild-type
Target sequence in this assay (P12318 34-217): as the sequence (P12318 34-217) above

[14] = biological target: FcγRIIb (UniProt P31994); experiment: as above
Target sequence in this assay (P31994 43-217 limits assumed): as the sequence (P31994 43-217) above

[15] = biological target: FcγRIIb (UniProt P31994); experiment: SPR (Protocol 1); IIb-Fold over IIaR-Fold
Target sequence in this assay (P31994 43-217 limits assumed): as the sequence (P31994 43-217) above

[16] = biological target: FcγRIIb (UniProt P31994); experiment: SPR (Protocol 1); FcγRIIb ratio over FcγRIIaR ratio
Target sequence in this assay (P31994 43-217 limits assumed): as the sequence (P31994 43-217) above

[17] = biological target: FcγRIIb soluble extracellular domain with C-terminal 10xHis tag (UniProt P31994); experiment: SPR; IIb selectivity of variant / that of control v27294
[18] = biological target: Soluble FcγRIIb extracellular domain with C-terminal 10xHis tag (UniProt P31994); experiment: SPR, antibody captured on immobilised HER2, soluble receptor as analyte
[19] = biological target: Soluble FcγRIIaR extracellular domain with C-terminal 10xHis tag (UniProt P12318); experiment: as above
[20] = biological target: C1q (human) (UniProt P02745); experiment: cell-based or functional assay
[21] = biological target: FcγRIIaR (UniProt P12318); experiment: SPR imaging (IBIS MX96), antibody spotted on chip, soluble receptor as analyte, kinetic fit, 25 C, pH 7.4
Target sequence in this assay (P12318 34-217 H167R limits assumed): as the sequence (P12318 34-217) above, with H134R counted along it

[22] = biological target: Soluble FcγRIIb extracellular domain with C-terminal 10×His tag (UniProt P31994); experiment: SPR (Protocol 2): one-armed antibody captured on immobilised HER2, soluble receptor as analyte; fold over wild-type
[23] = biological target: Soluble FcγRIIaR extracellular domain with C-terminal 10×His tag (UniProt P12318); experiment: as above
[24] = biological target: Soluble FcγRIIb extracellular domain with C-terminal 10×His tag (UniProt P31994); experiment: SPR (Protocol 2); ratio of FcγRIIb fold to FcγRIIaR fold over wild-type

FcγRIIb soluble extracellular domain with C-terminal 10xHis tag, sequence (P31994 other isoform, or with tags, fused parts or gaps limits assumed): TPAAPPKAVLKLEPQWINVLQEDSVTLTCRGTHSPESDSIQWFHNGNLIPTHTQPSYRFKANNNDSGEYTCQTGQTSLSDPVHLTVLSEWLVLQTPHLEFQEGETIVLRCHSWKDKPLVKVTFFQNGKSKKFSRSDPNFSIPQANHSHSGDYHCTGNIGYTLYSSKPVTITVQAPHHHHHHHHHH
Soluble FcγRIIb extracellular domain with C-terminal 10xHis tag, sequence (P31994 other isoform, or with tags, fused parts or gaps): as the sequence (P31994 other isoform, or with tags, fused parts or gaps limits assumed) above
FcγRIIaR soluble extracellular domain with C-terminal 10xHis tag, sequence (P12318 other isoform, or with tags, fused parts or gaps): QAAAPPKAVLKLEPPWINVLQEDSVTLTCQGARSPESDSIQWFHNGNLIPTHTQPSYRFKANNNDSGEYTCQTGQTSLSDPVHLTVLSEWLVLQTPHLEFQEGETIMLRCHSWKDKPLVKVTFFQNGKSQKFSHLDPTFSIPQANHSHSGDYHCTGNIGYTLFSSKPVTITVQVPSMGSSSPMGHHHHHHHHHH
Soluble FcγRIIaR extracellular domain with C-terminal 10xHis tag, sequence (P12318 other isoform, or with tags, fused parts or gaps): as above
C1q (human), sequence (P02745 23-245 limits assumed, chain 1 of 3): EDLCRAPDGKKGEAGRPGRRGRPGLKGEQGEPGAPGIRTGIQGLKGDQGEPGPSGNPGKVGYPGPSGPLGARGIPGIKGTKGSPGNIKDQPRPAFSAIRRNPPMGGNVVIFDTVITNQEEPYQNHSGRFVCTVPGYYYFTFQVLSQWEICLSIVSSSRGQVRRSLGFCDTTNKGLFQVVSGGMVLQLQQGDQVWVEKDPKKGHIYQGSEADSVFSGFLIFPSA
C1q (human), sequence (P02746 28-253 limits assumed, chain 2 of 3, further chain): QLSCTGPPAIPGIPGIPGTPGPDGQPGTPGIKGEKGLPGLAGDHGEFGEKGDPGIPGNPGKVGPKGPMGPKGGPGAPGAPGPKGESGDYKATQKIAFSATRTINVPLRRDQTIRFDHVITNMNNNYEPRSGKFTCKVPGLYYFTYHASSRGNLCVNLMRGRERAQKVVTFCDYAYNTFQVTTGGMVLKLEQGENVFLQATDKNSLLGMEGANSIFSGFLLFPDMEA
C1q (human), sequence (P02747 29-245 limits assumed, chain 3 of 3, further chain): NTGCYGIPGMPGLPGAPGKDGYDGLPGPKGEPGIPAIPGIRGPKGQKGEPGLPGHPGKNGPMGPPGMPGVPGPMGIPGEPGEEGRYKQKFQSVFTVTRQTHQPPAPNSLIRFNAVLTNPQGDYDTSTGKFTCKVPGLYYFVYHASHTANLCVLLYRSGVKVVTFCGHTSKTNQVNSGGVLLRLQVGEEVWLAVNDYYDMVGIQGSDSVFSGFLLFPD
Soluble FcγRIIb extracellular domain with C-terminal 10×His tag, sequence (P31994 other isoform, or with tags, fused parts or gaps): as the sequence (P31994 other isoform, or with tags, fused parts or gaps limits assumed) above
Soluble FcγRIIaR extracellular domain with C-terminal 10×His tag, sequence (P12318 other isoform, or with tags, fused parts or gaps): as the sequence (P12318 other isoform, or with tags, fused parts or gaps) above

For “Variant 26593 (A_L234F_L235D_G236N_H268Q_A327G_A330K_P331S / B_G236D_S239D_V266L_S267A_H268D) (antibody)”, the IIaR-fold [1] was 2.5 fold, the IIb-Fold [2] was 65.2 fold and the IIb-Fold wrt Control [3] was 0.7 fold. It also gave an IIb Selectivity [4] of 26.3 fold.
Substance “v26130 (A_N236A_strat1), one-armed trastuzumab antibody” has a pKd [5] of 8.40 and a pKd [6] of 7.92.
Substance “Variant 31256 (trastuzumab FSA; A: L234F_G236N_H268Q_A327G_P329I_A330K_P331S; B: G236D_G237D_S239D_V266L_S267A_H268D) (antibody)” has an IIb Selectivity (IIb-Fold/IIaR-Fold) [7] of 34 fold, a C1q Binding (% WT) [8] of 3 % WT and an IIaR-fold (fold change in affinity over wild-type) [9] of 4 fold. It also gave an IIb-fold (fold change in affinity over wild-type) [10] of 121 fold.
“variant 16572, one-armed trastuzumab antibody (Scaffold 2), L234F in both chains” was tested, and the Ka,mut/Ka,WT [11] was 0.21, the Ka,mut/Ka,WT [12] was 0.52 and the IIaR-Fold (fold affinity over wild-type) [13] was 0.21 fold. For the same substance, the IIb-Fold (fold affinity over wild-type) [14] was 0.52 fold, the IIb/IIaR Selectivity [15] was 2.48 and the Selectivity IIb/IIaR [16] was 2.5.
“Variant 26939 (A_L234F_G236N_H268Q_A327G_A330K_P331S / B_G236D_G237N_S239D_V266L_S267A_H268D) (antibody)” gave an IIaR-fold [1] of 27.5 fold, an IIb-Fold [2] of 542 fold and an IIb-Fold wrt Control [3] of 5.8 fold. It also gave an IIb Selectivity [4] of 19.7 fold and an IIb Selectivity Improvement wrt Control [17] of 1.5 fold.
In the case of “Variant 31190 (trastuzumab FSA; A: L234F_L235D_G236N_H268Q_A327G_A330K_P331S; B: G236D_G237L_S239D_V266L_S267A_H268D) (antibody)”, the IIb Selectivity (IIb-Fold/IIaR-Fold) [7] was 26 fold, the C1q Binding (% WT) [8] was 2 % WT and the IIaR-fold (fold change in affinity over wild-type) [9] was 7 fold. It also gave an IIb-fold (fold change in affinity over wild-type) [10] of 187 fold.
“v26129 (A_N236G_strat1), one-armed trastuzumab antibody” gave a pKd [5] of 8.34 and a pKd [6] of 8.05.
“Variant 26663 (A_L234F_G236N_S267A_H268Q_A327G_A330K_P331S / B_G236D_S239D_V266L_S267A_H268D) (antibody)” was tested, and the IIaR-fold [1] was 2.6 fold, the IIb-Fold [2] was 62.1 fold and the IIb-Fold wrt Control [3] was 0.7 fold. The IIb Selectivity [4] was 23.6 fold and the IIb Selectivity Improvement wrt Control [17] was 1.8 fold.
With “Variant 27294, Launching Module 2 (A_L234F_G236N_H268Q_A327G_A330K_P331S / B_G236D_S239D_V266L_S267A_H268D), one-armed trastuzumab antibody” the pKd [18] was 7.80 and the pKd [19] was 7.36.
In the case of “v26128 (A_L235P_strat1), one-armed trastuzumab antibody”, the pKd [5] was 8.19 and the pKd [6] was 7.74.
Substance “variant 16490, one-armed trastuzumab antibody (Scaffold 2), G236D in both chains” has a Ka,mut/Ka,WT [11] of 0.81, a Ka,mut/Ka,WT [12] of 2.22 and an IIaR-Fold (fold affinity over wild-type) [13] of 0.81 fold. It also gave an IIb-Fold (fold affinity over wild-type) [14] of 2.22 fold, an IIb/IIaR Selectivity [15] of 2.75 and a Selectivity IIb/IIaR [16] of 2.7.
With “Variant 26940 (A_L234F_G236N_H268Q_A327G_A330K_P331S / B_G236D_G237D_S239D_V266L_S267A_H268D) (antibody)” the IIaR-fold [1] was 13.1 fold, the IIb-Fold [2] was 304 fold and the IIb-Fold wrt Control [3] was 3.3 fold. It also gave an IIb Selectivity [4] of 23.3 fold and an IIb Selectivity Improvement wrt Control [17] of 1.7 fold.
For “anti-CD40 full-size antibody (Chi Lob 7/4 Fab) with control Fc v12 (symmetrical E233D_G237D_P238D_H268D_P271G_A330R)”, the CDC assay on Ramos cells: Lysis (%) Mean, at highest test antibody concentration [20] was 7.28%.
“v26132 (A_N236L_strat1), one-armed trastuzumab antibody” gave a pKd [5] of 8.57 and a pKd [6] of 8.14.
With “anti-CD40 full-size antibody (Chi Lob 7/4 Fab) with control Fc SELF (S267E_L328F)” the CDC assay on Ramos cells: Lysis (%) Mean, at highest test antibody concentration [20] was 78.2%, the CDC assay on Ramos cells: Normalized Potency Mean [20] was 93.6 % of WT and the CDC assay on Ramos cells: Potency (ng/mL) Mean, antibody concentration above which >20% cell lysis was achieved [20] was 166 ng/mL.
For “Variant 26847 (A_L234F_G236N_H268Q_A327G_A330T_P331S / B_G236D_S239D_V266L_S267A_H268D) (antibody)”, the IIaR-fold [1] was 2.4 fold, the IIb-Fold [2] was 53.3 fold and the IIb-Fold wrt Control [3] was 0.6 fold. It also gave an IIb Selectivity [4] of 22.6 fold and an IIb Selectivity Improvement wrt Control [17] of 1.7 fold.
Work on “v12 (IIb-specific comparator, symmetrical E233D_G237D_P238D_H268D_P271G_A330R), anti-CD40 (Chi Lob 7/4) full-size antibody” yielded a pKd [21] of 6.41.
In the case of “Variant 26931 (A_L234F_G236N_H268Q_A327G_A330K_P331S / B_G236D_G237L_S239D_V266L_S267A_H268D) (antibody)”, the IIaR-fold [1] was 14.2 fold, the IIb-Fold [2] was 296 fold and the IIb-Fold wrt Control [3] was 3.2 fold. For the same substance, the IIb Selectivity [4] was 20.9 fold and the IIb Selectivity Improvement wrt Control [17] was 1.6 fold.
Work on “Variant 22128 (trastuzumab FSA; A: L234F_G236N_H268Q_K274Q_A327G_A330K_P331S; B: L234F_G236D_S239D_V266L_S267A_H268D_K274Q_A327G_A330S_P331S) (antibody)” yielded an IIb Selectivity (IIb-Fold/IIaR-Fold) [7] of 9 fold, a C1q Binding (% WT) [8] of 3 % WT and an IIaR-fold (fold change in affinity over wild-type) [9] of 4 fold. It also gave an IIb-fold (fold change in affinity over wild-type) [10] of 33 fold.
For “variant 16578, one-armed trastuzumab antibody (Scaffold 2), A327G_A330S_P331S_L234F_H268Q_K274Q in both chains”, the Ka,mut/Ka,WT [11] was 0.47, the Ka,mut/Ka,WT [12] was 2.03 and the IIaR-Fold (fold affinity over wild-type) [13] was 0.47 fold. For the same substance, the IIb-Fold (fold affinity over wild-type) [14] was 2.03 fold, the IIb/IIaR Selectivity [15] was 4.35 and the Selectivity IIb/IIaR [16] was 4.4.
“anti-CD40 full-size antibody (Chi Lob 7/4 Fab) with wild-type CH2, v21653” was tested, and the CDC assay on Ramos cells: Lysis (%) Mean, at highest test antibody concentration [20] was 77.8% and the CDC assay on Ramos cells: Potency (ng/mL) Mean, antibody concentration above which >20% cell lysis was achieved [20] was 67.7 ng/mL.
“Variant 22131 (one-armed trastuzumab antibody, heterodimeric IgG1 Fc; A: L234F_G236N_S267A / B: G236D_S239D_V266L_S267A_H268D)” gave an IIb-fold (fold change in affinity over wild-type) [22] of 45.1 fold, an IIaR-fold (fold change in affinity over wild-type) [23] of 4.3 fold and an IIb/IIaR Selectivity (IIb-Fold/IIaR-Fold) [24] of 10.4.
Work on “variant 16533, one-armed trastuzumab antibody (Scaffold 2), S267I in both chains” yielded a Ka,mut/Ka,WT [11] of 0.98, a Ka,mut/Ka,WT [12] of 2.69 and an IIaR-Fold (fold affinity over wild-type) [13] of 0.98 fold. For the same substance, the IIb-Fold (fold affinity over wild-type) [14] was 2.69 fold, the IIb/IIaR Selectivity [15] was 2.75 and the Selectivity IIb/IIaR [16] was 2.8.
“anti-CD40 full-size antibody (Chi Lob 7/4 Fab) with Fc negative variant (L234A, L235A, D265S)” was tested, and the CDC assay on Ramos cells: Lysis (%) Mean, at highest test antibody concentration [20] was 5.13%.
Substance “v26131 (A_N236V_strat1), one-armed trastuzumab antibody” has a pKd [5] of 8.52 and a pKd [6] of 8.10.
“variant 16585, one-armed trastuzumab antibody (Scaffold 2), L234D in both chains” gave a Ka,mut/Ka,WT [11] of 0.17, a Ka,mut/Ka,WT [12] of 0.47 and an IIaR-Fold (fold affinity over wild-type) [13] of 0.17 fold. It also gave an IIb-Fold (fold affinity over wild-type) [14] of 0.47 fold, an IIb/IIaR Selectivity [15] of 2.7 and a Selectivity IIb/IIaR [16] of 2.7.
In the case of “Variant 22127 (trastuzumab FSA; A: L234D_G236N_S267A; B: G236D_S239D_V266L_S267A_H268D) (antibody)”, the IIb Selectivity (IIb-Fold/IIaR-Fold) [7] was 12 fold, the C1q Binding (% WT) [8] was 215 % WT and the IIaR-fold (fold change in affinity over wild-type) [9] was 4 fold. The IIb-fold (fold change in affinity over wild-type) [10] was 49 fold.
For “one-armed trastuzumab antibody (Scaffold 2), chain A L235D, chain B H268Q_K274Q”, the Ka,mut/Ka,WT [11] was 1.03, the Ka,mut/Ka,WT [12] was 2.24 and the Selectivity IIb/IIaR [16] was 2.2.
